In patent publication US20250019457A1 (IBIO, published 2025):

T1: human TROP2 (purified recombinant antigen, Acro Biosystems Cat #TR2-H5223) (human, UniProt P09758 27-274)
T1 construct: Bought recombinant protein; also called huTROP2
T1 sequence: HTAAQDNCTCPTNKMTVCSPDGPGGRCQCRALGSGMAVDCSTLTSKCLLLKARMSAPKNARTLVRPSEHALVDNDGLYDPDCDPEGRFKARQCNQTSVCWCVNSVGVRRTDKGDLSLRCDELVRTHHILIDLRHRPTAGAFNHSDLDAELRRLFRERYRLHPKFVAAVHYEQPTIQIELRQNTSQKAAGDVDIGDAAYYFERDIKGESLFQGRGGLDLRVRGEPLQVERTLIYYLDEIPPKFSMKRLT


Biological target: T1, human TROP2 (purified recombinant …)
Experiment: SPR (Carterra LSA), antibody captured through human Fc, huTROP2 as analyte; KD plotted for each VH/VL combination

| Binder | binding result |
| --- | --- |
| 589-VH_2 + 589-VL_1 (antibody, V domains shown) VH: QVQLLESGGGLVKPGGSLRLSCAASGFDFIDYDMFWIRQAPGKGLEWVGVINRSGSYTNYAPAVKGRATISRDNAKNSMYLQMNSLRAEDTAVYYCARGACTHCWDADSAGYIDAWGQGTLVTVSS VL: SYELTQPPSVSVSPGQTASITCSGSSGSYGWYQQKPGQSPVLVIYSSDKRPSGIPERFSGSNSGNTATLTISGTQAMDEADYYCGGYDGSTDVGIFGGGTKLTVL | binds |
| 589-VH_2 + 589-VL_4 (antibody, V domains shown) VH: QVQLLESGGGLVKPGGSLRLSCAASGFDFIDYDMFWIRQAPGKGLEWVGVINRSGSYTNYAPAVKGRATISRDNAKNSMYLQMNSLRAEDTAVYYCARGACTHCWDADSAGYIDAWGQGTLVTVSS VL: ALALTQPSSVSANPGGTVKITCSGSSGSYGWHQQKSPGSAPVTVIYSSDKRPSDIPSRFSGALSGSTATLTITGVRAEDEAVYYCGGYDGSTDVGIFGAGTTLTVL | binds |
| 589-VH_5 + 589-VL_1 (antibody, V domains shown, parental VH with humanized VL) VH: AVTLDESGGGLQTPGGGLSLVCKASGFDFIDYDMFWVRQAPGKGLEWVGVINRSGSYTNYAPAVKGRATISRDNGQSTMRLQLNNLRAEDTGTYYCARGACTHCWDADSAGYIDAWGHGTEVIVSS VL: SYELTQPPSVSVSPGQTASITCSGSSGSYGWYQQKPGQSPVLVIYSSDKRPSGIPERFSGSNSGNTATLTISGTQAMDEADYYCGGYDGSTDVGIFGGGTKLTVL | binds |
| 589-VH_3 + 589-VL_4 (antibody, V domains shown) VH: not shown VL: ALALTQPSSVSANPGGTVKITCSGSSGSYGWHQQKSPGSAPVTVIYSSDKRPSDIPSRFSGALSGSTATLTITGVRAEDEAVYYCGGYDGSTDVGIFGAGTTLTVL | binds |
| 589-VH_1 + 589-VL_1 (antibody, V domains shown) VH: QVQLLESGGGLVKPGGSLRLSCAASGFTFSDYDMFWIRQAPGKGLEWVSVINRSGSYTNYAPAVKGRFTISRDNAKNSLYLQMNSLRAEDTAVYYCARGACTHCWDADSAGYIDAWGQGTLVTVSS VL: SYELTQPPSVSVSPGQTASITCSGSSGSYGWYQQKPGQSPVLVIYSSDKRPSGIPERFSGSNSGNTATLTISGTQAMDEADYYCGGYDGSTDVGIFGGGTKLTVL | binds |

Continued, values first:

| binding result | Binder |
| --- | --- |
| binds | 589-VH_3 + 589-VL_2 (antibody, V domains shown) VH: not shown VL: SLELTQPPSVSVSPGQTASITCSGSSGSYGWHQQKPGQSPVTVIYSSDKRPSGIPERFSGSSSGSTATLTISGTQAMDEADYYCGGYDGSTDVGIFGGGTKLTVL |
| binds | 589-VH_1 + 589-VL_2 (antibody, V domains shown) VH: QVQLLESGGGLVKPGGSLRLSCAASGFTFSDYDMFWIRQAPGKGLEWVSVINRSGSYTNYAPAVKGRFTISRDNAKNSLYLQMNSLRAEDTAVYYCARGACTHCWDADSAGYIDAWGQGTLVTVSS VL: SLELTQPPSVSVSPGQTASITCSGSSGSYGWHQQKPGQSPVTVIYSSDKRPSGIPERFSGSSSGSTATLTISGTQAMDEADYYCGGYDGSTDVGIFGGGTKLTVL |
| binds | 589-VH_5 + 589-VL_2 (antibody, V domains shown, parental VH with humanized VL) VH: AVTLDESGGGLQTPGGGLSLVCKASGFDFIDYDMFWVRQAPGKGLEWVGVINRSGSYTNYAPAVKGRATISRDNGQSTMRLQLNNLRAEDTGTYYCARGACTHCWDADSAGYIDAWGHGTEVIVSS VL: SLELTQPPSVSVSPGQTASITCSGSSGSYGWHQQKPGQSPVTVIYSSDKRPSGIPERFSGSSSGSTATLTISGTQAMDEADYYCGGYDGSTDVGIFGGGTKLTVL |
| binds | 589-VH_2 + 589-VL_2 (antibody, V domains shown, also called SD-861408) VH: QVQLLESGGGLVKPGGSLRLSCAASGFDFIDYDMFWIRQAPGKGLEWVGVINRSGSYTNYAPAVKGRATISRDNAKNSMYLQMNSLRAEDTAVYYCARGACTHCWDADSAGYIDAWGQGTLVTVSS VL: SLELTQPPSVSVSPGQTASITCSGSSGSYGWHQQKPGQSPVTVIYSSDKRPSGIPERFSGSSSGSTATLTISGTQAMDEADYYCGGYDGSTDVGIFGGGTKLTVL |
| binds | 589-VH_1 + 589-VL_4 (antibody, V domains shown) VH: QVQLLESGGGLVKPGGSLRLSCAASGFTFSDYDMFWIRQAPGKGLEWVSVINRSGSYTNYAPAVKGRFTISRDNAKNSLYLQMNSLRAEDTAVYYCARGACTHCWDADSAGYIDAWGQGTLVTVSS VL: ALALTQPSSVSANPGGTVKITCSGSSGSYGWHQQKSPGSAPVTVIYSSDKRPSDIPSRFSGALSGSTATLTITGVRAEDEAVYYCGGYDGSTDVGIFGAGTTLTVL |
| binds | 589-VH_3 + 589-VL_1 (antibody, V domains shown) VH: not shown VL: SYELTQPPSVSVSPGQTASITCSGSSGSYGWYQQKPGQSPVLVIYSSDKRPSGIPERFSGSNSGNTATLTISGTQAMDEADYYCGGYDGSTDVGIFGGGTKLTVL |
